B1: CRYL1 (parent)
chain: RNALENIRKEMKLLEQAGSLKGSL

Variants of: B1
Experiment: protein stability index of a GFP-peptide fusion (GPS, HEK-293T) (PSI 1-6); higher = more stable
Details: c terminus: a fixed tail appended
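Note: lentivirally expressed fusions sorted by FACS into six bins by GFP to DsRed ratio, PSI derived from sequencing read proportions per bin multiplied by bin number.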

Protein stability index, by site and new letter:
S23: P 3.56; H 3.12; M 2.27; I 2.45; Y 2.73; E 3.84; C 3.08; Q 3.32; F 2.64; G 3.4; L 1.87; D 3.48; V 2.2; W 1.95; T 2.8; N 3.22
S19: A 2.51; W 2.03; N 3.66; T 3.22; H 3.04; G 3.12; L 2.36; E 4.14; F 1.9; I 2.62; P 3.54; Y 2.17; D 3.71; M 2.56; K 3.42; R 3.08; V 2.66
M11: E 4.45; P 4.49; I 3.24; A 3.4; S 4.92; F 3.13; L 3.1; D 4.34; V 3.23; Y 2.92; T 4.37; H 4.45; W 2.21; Q 3.93; C 3.37
E15: K 2.48; T 3.08; Y 2.21; A 2.17; Q 3.57; G 3.05; D 3.63; M 2.87; W 1.49; R 3.63; L 2.16; F 2.9; I 1.71; H 2.77; S 2.58; C 3.2; N 3.16
K9: S 3.61; Q 3.29; F 1.95; W 1.8; L 1.94; M 2.32; H 2.9; D 3.57; I 1.48; Y 2.78; T 3.43; C 2.29; N 3.12; G 3.61
E10: V 2.63; S 2.33; N 2.89; F 1.61; I 1.92; K 2.31; M 1.23; Q 2.59; W 2.89; A 2.36; H 2.68; D 3.33
N2: L 2.88; E 3.65; Y 2.48; R 3.49; K 2.83; F 2.87; A 3.1; W 2.34; S 2.85; M 3.05; P 4.16; G 3.57; D 3.52
L13: T 3.04; A 3.89; H 4.32; I 3.77; K 3.87; E 3.94; D 4.12; P 4.52; R 3.66; N 3.53; G 4.1; S 4.04; Q 4.5; Y 2.98
L14: D 4.36; R 3.93; I 3.47; N 4.11; F 3.19; K 4.03; S 3.77; A 3.77; V 3.85; Q 4.18; C 3.39; Y 3.86; T 3.79; P 3.93; M 2.68; W 3.17
E5: K 2.7; Y 1.97; F 2.5; A 2.68; D 3.85; G 3.21; I 3.57; M 3; L 2.55; P 3.7; Q 3.34; N 2.46; W 2.69; C 2.98
A3: V 2.83; I 2.31; Y 2.56; L 2.64; C 2.45; E 2.94; S 4.31; N 3.75; F 2.6; M 3.75; Q 3.9
R1: E 3.65; G 3.82; V 3.53; F 2.46; L 3.21; C 2.87; N 3.83; H 3.47; M 3.11; T 3.87; K 3.77; I 2.69; W 3.34; Y 3.04; Q 3.65
G18: H 3.08; I 1.98; E 3.58; L 1.83; R 3.23; N 3.84; Y 2.12; T 3.39; P 4.33; F 2.13; Q 3.48; S 3.41; A 4; K 3.52; V 2.8; M 2.12
G22: W 2; M 2.27; A 3.21; D 4.1; K 4.21; I 1.4; S 3.14; F 2.65; N 3.04; C 2.65; H 2.94; V 2.15; Q 3.36; L 2.02; T 3.77
L24: E 4.08; I 3.2; C 4.05; W 3.16; D 3.99; N 3.81; T 3.47; M 3.3; F 3.13; Y 3.08; P 3.77; S 3.95
R8: E 2.58; P 4.29; K 3.04; S 3.87; Y 2.45; M 2.92; C 2.84; H 4.05; N 4.19; D 4.49; G 3.77; I 1.84
I7: H 3.74; M 3.29; F 2.37; W 3.15; P 4.22; A 4.35; D 4.75; K 5.08; Y 3.67; E 4.02; T 3.9; L 2.48; C 2.3; S 3.69; N 4.37
K21: G 2.56; Q 3.18; R 2.68; F 2.35; C 3.3; A 2.71; D 3.55; V 2.73; S 3.46; T 3.6; L 2.37
L4: A 3.93; C 4.05; Q 4.75; H 4.15; W 3.16; T 4.37; F 2.92; D 5; K 3.67; E 4.65
K12: P 4.57; Q 3.31; M 2.89; R 3.06; Y 3.75; L 3.55; E 3.38; S 3.53; A 3.46; F 2.39; N 3.36; D 4.23; C 3.43; I 3.46
A17: Q 4.01; G 3.4; L 3.18; F 2.22; T 3.4; W 2.33; I 2.71; N 3.62; P 3.5; E 3.84; Y 2.32; D 3.97; M 3.32; S 3.72; R 3.38; H 3.06; C 2.48
Q16: F 2.71; L 2.06; R 2.86; Y 2.37; N 3.75; M 2.76; W 2.11; S 2.62; P 3.3; K 3.02; E 3.75
L20: K 4.55; S 3.98; C 3.65; W 2.9; N 4.28; T 3.56; V 4.17; H 3.99; P 4.09; F 2.86; E 4.79; D 4.16; Y 3.9
N6: C 2.33; W 2.23; Y 2.53; P 3.4; M 2.98; S 3.72; H 3.38; T 2.53; F 1.68; I 2.45; G 3.79; D 3.76; Q 3.03; E 3.2

From the supplement of paper PMC10567573
